These results are taken from patent publication US10064926B2, “Peptides and combination of peptides for use in immunotherapy against hepatocellular carcinoma (HCC) and other cancers” (Immatics biotechnologies GmbH, priority 2014, dated 2018).

The first assay addresses HLA-A*02 (Homo sapiens, UniProt P04439, D140Y/D185E/D98H/E176V/E277Q/G131W/G231S/I119V/I121R/I166T/I218V/N151K/N90K/P208A/P217A/Q86G/Q94H/R138H/R169H). As to the kind of experiment: UV-ligand exchange / peptide binding to MHC class I (beta2m ELISA). To be noted: Table 10A; peptide exchange yield, UV-ligand exchange, β2m ELISA. From the text:
Candidate peptides for T cell based therapies according to the present invention were further tested for their MHC binding capacity (affinity). The individual peptide-MHC complexes were produced by UV-ligand exchange, where a UV-sensitive peptide is cleaved upon UV-irradiation, and exchanged with the peptide of interest as analyzed. Only peptide candidates that can effectively bind and stabilize the peptide-receptive MHC molecules prevent dissociation of the MHC complexes. To determine the yield of the exchange reaction, an ELISA was performed based on the detection of the light chain (β2m) of stabilized MHC complexes. The assay was performed as generally described in Rodenko et al. (Rodenko B, Toebes M, Hadrup S R, van Esch W J, Molenaar A M, Schumacher T N, Ovaa H. Generation of peptide-MHC class I complexes through UV-mediated ligand exchange. Nat Protoc. 2006; 1(3):1120-32).
96 well MAXISorp plates (NUNC) were coated over night with 2 ug/ml streptavidin in PBS at room temperature, washed 4× and blocked for 1 h at 37° C. in 2% BSA containing blocking buffer. Refolded HLA-A*0201/MLA-001 monomers served as standards, covering the range of 15-500 ng/ml. Peptide-MHC monomers of the UV-exchange reaction were diluted 100 fold in blocking buffer. Samples were incubated for 1 h at 37° C., washed four times, incubated with 2 ug/ml HRP conjugated anti-β2m for 1 h at 37° C., washed again and detected with TMB solution that is stopped with […]. Absorption was measured at 450 nm. Candidate peptides that show a high exchange yield (preferably higher than 50%, most preferred higher than 75%) are generally preferred for a generation and production of antibodies or fragments thereof, and/or T cell receptors or fragments thereof, as they show sufficient avidity to the MHC molecules and prevent dissociation of the MHC complexes.
A general note: An ELISA detects its analyte on a solid surface through an enzyme-linked reagent.
Regarding “5 (ALVEQGFTV; listed as Homo sapiens) [compound 5]”, the “Peptide exchange (MHC class I binding score)” value (shortened to “Peptide exchange”) is “++++ (>=75% = ++++)”.
As for “8 (KLLEEATISV; listed as Homo sapiens) [compound 8]”, the “Peptide exchange” value is reported as “+++ (50%-75% = +++)”.
Still for that read-out and setting: under “13 (GLIDTETAMKAV; listed as Homo sapiens) [compound 13]” stands “++++ (>=75% = ++++)”.

Staying with this assay, now noted: Table 10B; peptide exchange yield; HLA-A*02 peptides.
In the case of “3 (ILDDNMQKL; listed as Homo sapiens) [compound 3]”, the “Peptide exchange” value is ““+++” (≥50 = +++)”.
Same read-out and setting: as for “5 (ALVEQGFTV; listed as Homo sapiens) [compound 5]”, the entry is ““++++” (≥75% = ++++)”.
For the substance “8 (KLLEEATISV; listed as Homo sapiens) [compound 8]”, the “Peptide exchange” value is ““+++” (≥50 = +++)”.
“9 (ALANQKLYSV; listed as Homo sapiens) [compound 9]”: the “Peptide exchange” value is on record as ““+++” (≥50 = +++)”.
Take “13 (GLIDTETAMKAV; listed as Homo sapiens) [compound 13]”: the “Peptide exchange” value is ““++++” (≥75% = ++++)”.
The same measure, in the same setting: under “17 (RVASPTSGV; listed as Homo sapiens) [compound 17]” stands ““+++” (≥50 = +++)”; under “18 (ALYGKTEVV; listed as Homo sapiens) [compound 18]”, ““+++” (≥50 = +++)”.
The same measure, in the same setting: as for “19 (FLEETKATV; listed as Homo sapiens) [compound 19]”, the entry is ““+++” (≥50 = +++)”; as for “20 (KLSNVLQQV; listed as Homo sapiens) [compound 20]”, ““++++” (≥75% = ++++)”.
As for “21 (QLIEVSSPITL; listed as Homo sapiens) [compound 21]”, the “Peptide exchange” value is ““++++” (≥75% = ++++)”.
On the same count and under the same terms, under “22 (RIAGIRGIQGV; listed as Homo sapiens) [compound 22]” stands ““++++” (≥75% = ++++)”; under “23 (RLYDPASGTISL; listed as Homo sapiens) [compound 23]”, ““+++” (≥50 = +++)”.
Consider “24 (SLAEEKLQASV; listed as Homo sapiens) [compound 24]”, for which the “Peptide exchange” value is reported as ““+++” (≥50 = +++)”.
The same measure, in the same setting: as for “25 (SLDGKAALTEL; listed as Homo sapiens) [compound 25]”, the entry is ““+++” (≥50 = +++)”; as for “26 (SLLHTIYEV; listed as Homo sapiens) [compound 26]”, ““+++” (≥50 = +++)”.
As to “27 (TLPDFRLPEI; listed as Homo sapiens) [compound 27]”, the “Peptide exchange” value is given as ““++++” (≥75% = ++++)”.
For “28 (TLQDHLNSL; listed as Homo sapiens) [compound 28]”, the “Peptide exchange” value was ““+++” (≥50 = +++)”.
On the same count and under the same terms, under “29 (YIQDEINTI; listed as Homo sapiens) [compound 29]” stands ““+++” (≥50 = +++)”.
Same read-out and setting: as for “30 (YLGEGPRMV; listed as Homo sapiens) [compound 30]”, the entry is ““+++” (≥50 = +++)”.
The same measure, in the same setting: under “31 (YQMDIQQEL; listed as Homo sapiens) [compound 31]” stands ““+++” (≥50 = +++)”.
“32 (ALNAVRLLV; listed as Homo sapiens) [compound 32]”: the “Peptide exchange” value was ““++++” (≥75% = ++++)”.
On the same count and under the same terms, under “33 (LLHGHIVEL; listed as Homo sapiens) [compound 33]” stands ““+++” (≥50 = +++)”.
The same measure, in the same setting: under “34 (SLAEGTATV; listed as Homo sapiens) [compound 34]” stands ““+++” (≥50 = +++)”; under “35 (SLQESILAQV; listed as Homo sapiens) [compound 35]”, ““+++” (≥50 = +++)”.
Still for that read-out and setting: as for “36 (ILNVDGLIGV; listed as Homo sapiens) [compound 36]”, the entry is ““+++” (≥50 = +++)”; as for “37 (LLLPLLPPLSP; listed as Homo sapiens) [compound 37]”, ““+++” (≥50 = +++)”; as for “38 (ALADVVHEA; listed as Homo sapiens) [compound 38]”, ““+++” (≥50 = +++)”.
Turning to “39 (ALDPKANFST; listed as Homo sapiens) [compound 39]”, the “Peptide exchange” value is ““+++” (≥50 = +++)”.
Still for that read-out and setting: as for “40 (ALLAEGITWV; listed as Homo sapiens) [compound 40]”, the entry is ““+++” (≥50 = +++)”; as for “41 (ALLELDEPLVL; listed as Homo sapiens) [compound 41]”, ““++++” (≥75% = ++++)”; as for “42 (ALLGGNVRMML; listed as Homo sapiens) [compound 42]”, ““+++” (≥50 = +++)”.
Turning to “44 (ALQDAIRQL; listed as Homo sapiens) [compound 44]”, the “Peptide exchange” value is ““++++” (≥75% = ++++)”.
On the same count and under the same terms, under “45 (ALQDQLVLV; listed as Homo sapiens) [compound 45]” stands ““++++” (≥75% = ++++)”; under “46 (AMAEMKVVL; listed as Homo sapiens) [compound 46]”, ““+++” (≥50 = +++)”; under “47 (FLDTPIAKV; listed as Homo sapiens) [compound 47]”, ““++” (≥20% = ++)”.
Same read-out and setting: under “48 (FLLEQPEIQV; listed as Homo sapiens) [compound 48]” stands ““+++” (≥50 = +++)”; under “49 (FLYPEKDEPT; listed as Homo sapiens) [compound 49]”, ““++” (≥20% = ++)”.
On the same count and under the same terms, as for “50 (FTIPKLYQL; listed as Homo sapiens) [compound 50]”, the entry is ““++” (≥20% = ++)”; as for “51 (GLAEELVRA; listed as Homo sapiens) [compound 51]”, ““++” (≥20% = ++)”; as for “52 (GLFNAELLEA; listed as Homo sapiens) [compound 52]”, ““+++” (≥50 = +++)”.
Take “53 (GLIHLEGDTV; listed as Homo sapiens) [compound 53]”: the “Peptide exchange” value is ““+++” (≥50 = +++)”.
On the same count and under the same terms, as for “54 (GLLDPNVKSIFV; listed as Homo sapiens) [compound 54]”, the entry is ““+++” (≥50 = +++)”.
Regarding “55 (GLYGRTIEL; listed as Homo sapiens) [compound 55]”, the “Peptide exchange” value is given as ““+++” (≥50 = +++)”.
As for “56 (GVLPGLVGV; listed as Homo sapiens) [compound 56]”, the “Peptide exchange” value is ““+++” (≥50 = +++)”.
Still for that read-out and setting: as for “57 (HLTEAIQYV; listed as Homo sapiens) [compound 57]”, the entry is ““+++” (≥50 = +++)”.
“58 (ILADLNLSV; listed as Homo sapiens) [compound 58]”: the “Peptide exchange” value is ““++++” (≥75% = ++++)”.
The same measure, in the same setting: under “59 (ILADTFIGV; listed as Homo sapiens) [compound 59]” stands ““+++” (≥50 = +++)”; under “60 (ILSPLSVAL; listed as Homo sapiens) [compound 60]”, ““++++” (≥75% = ++++)”.
Same read-out and setting: under “61 (KIADFELPTI; listed as Homo sapiens) [compound 61]” stands ““++++” (≥75% = ++++)”.
With “62 (KIAGTNAEV; listed as Homo sapiens) [compound 62]”, the “Peptide exchange” value is given as ““++” (≥20% = ++)”.
Still for that read-out and setting: as for “63 (KIDEKNFVV; listed as Homo sapiens) [compound 63]”, the entry is ““+++” (≥50 = +++)”; as for “64 (KILEETLYV; listed as Homo sapiens) [compound 64]”, ““+++” (≥50 = +++)”; as for “65 (KLFSGDELLEV; listed as Homo sapiens) [compound 65]”, ““+++” (≥50 = +++)”.
Take “66 (KLHEEIDRV; listed as Homo sapiens) [compound 66]”: the “Peptide exchange” value is ““+++” (≥50 = +++)”.
Still for that read-out and setting: under “67 (KLKETIQKL; listed as Homo sapiens) [compound 67]” stands ““+++” (≥50 = +++)”.
Still for that read-out and setting: under “68 (KLLAATVLLL; listed as Homo sapiens) [compound 68]” stands ““++” (≥20% = ++)”; under “69 (KLLDEVTYLEA; listed as Homo sapiens) [compound 69]”, ““++++” (≥75% = ++++)”; under “70 (KLLDLETERILL; listed as Homo sapiens) [compound 70]”, ““++++” (≥75% = ++++)”.
